The experiment concerns the target full-length recombinant ABI1 (UniProt Q8IZP0-5 1-476). Kind of experiment: SPR. (In general: SPR reads the build-up and loss of mass on a sensor chip optically.)

B1: Shank3 fragment 4 (aa 668–858), S685I (domain or fragment, mouse, UniProt Q4ACU6 668-858, looked up)
chain: EEDGARRRAPPPPKRAPITTLTLRSKSMTAELEELASIRRRKGEKLDEILAVAAEPTLRPDIADADSRAATVKQRPTSRRITPAEISSLFERQGLPGPEKLPGSLRKGIPRTKSVGEDEKLASLLEGRFPRSTSMQDTVREGRGIPPPPQTAPPPPPAPYYFDSGPPPTFSPPPPPGRAYDTVRSSFKPGL
For B1, the “fold increase in KD against wild-type fragment 4” value is about 4 fold.

Source of the values: article PMC6609509 (Molecular psychiatry, 2019).
